The assay has as its system NK92 cells. The experiment in a line: IFNγ production by NK92 cells. Conditions: TJW, unpublished. The format is cell-based, human.

B1: PLCγ2: phospholipase C gamma-2 (protein)
chain: MSTTVNVDSLAEYEKSQIKRALELGTVMTVFSFRKSTPERRTVQVIMETRQVAWSKTADKIEGFLDIMEIKEIRPGKNSKDFERAKAVRQKEDCCFTILYGTQFVLSTLSLAADSKEDAVNWLSGLKILHQEAMNASTPTIIESWLRKQIYSVDQTRRNSISLRELKTILPLINFKVSSAKFLKDKFVEIGAHKDELSFEQFHLFYKKLMFEQQKSILDEFKKDSSVFILGNTDRPDASAVYLHDFQRFLIHEQQEHWAQDLNKVRERMTKFIDDTMRETAEPFLFVDEFLTYLFSRENSIWDEKYDAVDMQDMNNPLSHYWISSSHNTYLTGDQLRSESSPEAYIRCLRMGCRCIELDCWDGPDGKPVIYHGWTRTTKIKFDDVVQAIKDHAFVTSSFPVILSIEEHCSVEQQRHMAKAFKEVFGDLLLTKPTEASADQLPSPSQLREKIIIKHKKLGPRGDVDVNMEDKKDEHKQQGELYMWDSIDQKWTRHYCAIADAKLSFSDDIEQTMEEEVPQDIPPTELHFGEKWFHKKVEKRTSAEKLLQEYCMETGGKDGTFLVRESETFPNDYTLSFWRSGRVQHCRIRSTMEGGTLKYYLTDNLTFSSIYALIQHYRETHLRCAEFELRLTDPVPNPNPHESKPWYYDSLSRGEAEDMLMRIPRDGAFLIRKREGSDSYAITFRARGKVKHCRINRDGRHFVLGTSAYFESLVELVSYYEKHSLYRKMRLRYPVTPELLERYNMERDINSLYDVSRMYVDPSEINPSMPQRTVKALYDYKAKRSDELSFCRGALIHNVSKEPGGWWKGDYGTRIQQYFPSNYVEDISTADFEELEKQIIEDNPLGSLCRGILDLNTYNVVKAPQGKNQKSFVFILEPKQQGDPPVEFATDRVEELFEWFQSIREITWKIDTKENNMKYWEKNQSIAIELSDLVVYCKPTSKTKDNLENPDFREIRSFVETKADSIIRQKPVDLLKYNQKGLTRVYPKGQRVDSSNYDPFRLWLCGSQMVALNFQTADKYMQMNHALFSLNGRTGYVLQPESMRTEKYDPMPPESQRKILMTLTVKVLGARHLPKLGRSIACPFVEVEICGAEYDNNKFKTTVVNDNGLSPIWAPTQEKVTFEIYDPNLAFLRFVVYEEDMFSDPNFLAHATYPIKAVKSGFRSVPLKNGYSEDIELASLLVFCEMRPVLESEEELYSSCRQLRRRQEELNNQLFLYDTHQNLRNANRDALVKEFSVNENQLQLYQEKCNKRLREKRVSNSKFYS
Regarding B1, the “effect on IFNγ production by NK92 cells” value is given as “activating”.

The record behind these values is paper PMC3958483, “Fine Specificity and Molecular Competition in SLAM Family Receptor Signalling” (PLoS ONE, 2014).
